“And” between values parts separate entries of the source, which are not always exact repeats. Equal entries are not always repeated.

The term Kd denotes the constant that tells how readily two partners part at equilibrium. As a reminder, the koff is the first-order rate constant of dissociation. Read a high koff as fast dissociation. For orientation: kon means a measure of how fast the partners come together.

Assay [1] has as its target PfHsp70-zLS (linker switch mutant of PfHsp70-z carrying the linker of canonical Hsp70) (Plasmodium falciparum) (UniProt Q8IC01). Briefly: SPR. For orientation: SPR reads the build-up and loss of mass on a sensor chip optically.
Assay [2] has as its target PfHsp70-1LS (linker switch mutant of PfHsp70-1 carrying the linker of PfHsp70-z) (Plasmodium falciparum) (UniProt Q8IB24). Put plainly: SPR.

B1: Plasmodium falciparum Hsp110 (PfHsp70-z, PF3D7_0708800) (natural protein)
chain: MSVLGIDIGNDNSVVATINKGAINVVRNDISERLTPTLVGFTEKERLIGDSALSKLKSNYKNTCRNIKNLIGKIGTDVKDDIEIHEAYGDLIPCEYNYLGYEVEYKNEKVVFSAVRVLSALLSHLIKMAEKYIGKECKEIVLSYPPTFTNCQKECLLAATKIINANVLRIISDNTAVALDYGMYRMKEFKEDNGSLLVFVNIGYANTCVCVARFFSNKCEILCDIADSNLGGRNLDNELIKYITNIFVNNYKMNPLYKNNTPELCPMGTGRLNKFLVTSTASDQQNGINNKVRIKLQEVAIKTKKVLSANNEASIHVECLYEDLDCQGSINRETFEELCSNFFLTKLKHLLDTALCISKVNIQDIHSIEVLGGSTRVPFIQNFLQQYFQKPLSKTLIADESIARGCVLSAAMVSKHYKVKEYECVEKVTHPINVEWHNINDASKSNVEKLYTRDSLKKKVKKIVIPEKGHIKLTAYYENTPDLPSNCIKELGSCIVKINEKNDKIVESHVMTTFSNYDTFTFLGAQTVTKSVIKSKDEKKKADDKTEDKGEKKDAKDQEQNDDKDQTNDNNMNEKDTNDKKEKNNETNSPNKTELKKGEEGKVQTCYTTIPIETLLAQGSYSSKDIFNFSEQEINMQHSDILEGERLKHLNELETIIYESRSRLNGIYKNFVMDDERDRILLSLDDYENWLYDNIEENKNMFIKKKEEIRDLIKNIVQKFDVYNSKQQNLGNIINHLNNIITQCSNKPSDESQNIINRTTKFLNNINSLQEQEKNKPLYEPPVYTLNDIEAEFNEVTQLAQKFFSKLEVEELAKQKAKQEKEKEKEKEKEKEKEKEKNEETNLDANEEQNNEAKNNEEKENSTKNENSANPEE
As to B1, in assay [1], the Kd was 3.17 nM and 2.79 nM and 1.84 nM; the off-rate constant (koff) is 4.15e-05 s⁻¹ and 4.36e-05 s⁻¹ and 5.32e-05 s⁻¹; the kon was 13100 M⁻¹ s⁻¹ and 23700 M⁻¹ s⁻¹ and 19100 M⁻¹ s⁻¹.

B2: PfHop (natural protein)
chain: MVNKEEAQRLKELGNKCFQEGKYEEAVKYFSDAITNDPLDHVLYSNLSGAFASLGRFYEALESANKCISIKKDWPKGYIRKGCAEHGLRQLSNAEKTYLEGLKIDPNNKSLQDALSKVRNENMLENAQLIAHLNNIIENDPQLKSYKEENSNYPHELLNTIKSINSNPMNIRIILSTCHPKISEGVEKFFGFKFTGEGNDAEERQRQQREEEERRKKKEEEERKKKEEEEMKKQNRTPEQIQGDEHKLKGNEFYKQKKFDEALKEYEEAIQINPNDIMYHYNKAAVHIEMKNYDKAVETCLYAIENRYNFKAEFIQVAKLYNRLAISYINMKKYDLAIEAYRKSLVEDNNRATRNALKELERRKEKEEKEAYIDPDKAEEHKNKGNEYFKNNDFPNAKKEYDEAIRRNPNDAKLYSNRAAALTKLIEYPSALEDVMKAIELDPTFVKAYSRKGNLHFFMKDYYKALQAYNKGLELDPNNKECLEGYQRCAFKIDEMSKSEKVDEEQFKKSMADPEIQQIISDPQFQIILQKLNENPNSISEYIKDPKIFNGLQKLIAAGILKVR
Take B2: the dissociation constant (Kd) in assay [2] is 27.7 nM and 10 nM and 37.6 nM.

These data come from paper PMC11066147.
